Assay results as given in the supplement of paper PMC10065799, “High-throughput profiling of sequence recognition by tyrosine kinases and SH2 domains using bacterial peptide display” (eLife, 2023).

Experiments:
FGFR1 = FGFR1 (UniProt P11362); experiment: phosphorylation enrichment, bacterial display (enrichment ratio); higher = better substrate or ligand; peptides without Tyr show the background
Fyn = Fyn (UniProt P06241); experiment: as above
Hck = Hck (UniProt P08631); experiment: as above
c-Src = experiment: as above
Fer (mouse) = experiment: as above
Fes = Fes (UniProt P07332); experiment: as above
c-Abl (mouse) = experiment: as above
AncSZ = experiment: as above
MERTK = MERTK (UniProt Q12866); experiment: as above
EPHB1 = EPHB1 (UniProt P54762); experiment: as above
EPHB2 = EPHB2 (UniProt P29323); experiment: as above
FGFR3 = FGFR3 (UniProt P22607); experiment: as above
Jak2 = Jak2 (UniProt O60674); experiment: as above
Grb2 SH2 = Grb2 SH2 (UniProt P62993); experiment: SH2 binding enrichment of the phosphorylated peptide, bacterial display (enrichment ratio); higher = better substrate or ligand; peptides without Tyr show the background
c-Src SH2 = experiment: as above
SHP2-C SH2 = experiment: as above
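For SH2 binding enrichment of the phosphorylated peptide, bacterial display in this document: peptide library displayed on the E. coli surface as eCPX fusions, selected cells deep-sequenced, score is each peptide's frequency after selection divided by its frequency in the input.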
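For phosphorylation enrichment, bacterial display in this document: 11-residue human phosphosite peptides and single-mutation variants displayed on the E. coli surface, counted by deep sequencing, each peptide's frequency after selection divided by its frequency in the unselected input library; frequency after pTyr selection over input frequency; kinase dosed for 20-30% of maximal phosphorylation in three min.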

Chain of EPHB2 (P29323 whole entry, looked up): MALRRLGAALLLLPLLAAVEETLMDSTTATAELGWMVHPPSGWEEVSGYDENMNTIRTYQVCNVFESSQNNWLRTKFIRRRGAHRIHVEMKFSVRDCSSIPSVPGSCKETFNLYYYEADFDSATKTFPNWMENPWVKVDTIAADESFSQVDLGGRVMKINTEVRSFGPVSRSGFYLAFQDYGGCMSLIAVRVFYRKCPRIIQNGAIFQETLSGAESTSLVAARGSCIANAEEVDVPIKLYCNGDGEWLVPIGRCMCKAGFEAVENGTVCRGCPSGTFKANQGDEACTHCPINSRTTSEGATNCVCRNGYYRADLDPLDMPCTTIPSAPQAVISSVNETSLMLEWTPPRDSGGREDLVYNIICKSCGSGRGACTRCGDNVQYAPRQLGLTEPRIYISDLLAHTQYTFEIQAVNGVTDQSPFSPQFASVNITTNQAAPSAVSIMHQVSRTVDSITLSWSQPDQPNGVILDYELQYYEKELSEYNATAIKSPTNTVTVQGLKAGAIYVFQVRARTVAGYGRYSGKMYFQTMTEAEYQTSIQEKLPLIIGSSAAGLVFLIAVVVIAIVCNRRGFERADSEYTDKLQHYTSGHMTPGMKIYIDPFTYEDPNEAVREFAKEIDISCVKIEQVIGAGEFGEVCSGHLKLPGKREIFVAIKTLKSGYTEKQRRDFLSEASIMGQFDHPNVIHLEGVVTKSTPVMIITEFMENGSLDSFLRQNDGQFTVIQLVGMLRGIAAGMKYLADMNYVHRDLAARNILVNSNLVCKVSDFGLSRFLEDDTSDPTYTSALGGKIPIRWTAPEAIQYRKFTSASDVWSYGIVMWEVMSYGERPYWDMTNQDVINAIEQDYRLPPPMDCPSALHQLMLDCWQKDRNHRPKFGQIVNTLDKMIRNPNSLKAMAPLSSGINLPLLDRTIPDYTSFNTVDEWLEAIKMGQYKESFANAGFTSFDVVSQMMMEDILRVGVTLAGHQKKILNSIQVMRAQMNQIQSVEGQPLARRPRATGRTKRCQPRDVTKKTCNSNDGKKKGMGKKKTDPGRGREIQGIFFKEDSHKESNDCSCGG
Chain of Hck (P08631 whole entry, looked up): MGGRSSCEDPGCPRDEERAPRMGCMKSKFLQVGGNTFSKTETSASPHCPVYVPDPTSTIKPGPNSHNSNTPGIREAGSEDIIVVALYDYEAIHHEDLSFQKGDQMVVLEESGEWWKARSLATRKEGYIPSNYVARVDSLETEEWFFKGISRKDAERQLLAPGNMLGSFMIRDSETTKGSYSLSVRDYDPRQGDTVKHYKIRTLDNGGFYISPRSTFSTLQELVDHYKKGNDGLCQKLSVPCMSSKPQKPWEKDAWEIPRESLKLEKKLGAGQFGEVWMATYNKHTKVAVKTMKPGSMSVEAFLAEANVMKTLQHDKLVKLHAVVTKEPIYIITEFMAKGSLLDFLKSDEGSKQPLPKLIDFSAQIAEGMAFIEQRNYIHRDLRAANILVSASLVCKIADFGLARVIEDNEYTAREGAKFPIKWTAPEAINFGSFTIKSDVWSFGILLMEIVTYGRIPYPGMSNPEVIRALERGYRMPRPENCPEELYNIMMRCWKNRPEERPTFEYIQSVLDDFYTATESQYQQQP
Chain of FGFR3 (P22607 whole entry, looked up): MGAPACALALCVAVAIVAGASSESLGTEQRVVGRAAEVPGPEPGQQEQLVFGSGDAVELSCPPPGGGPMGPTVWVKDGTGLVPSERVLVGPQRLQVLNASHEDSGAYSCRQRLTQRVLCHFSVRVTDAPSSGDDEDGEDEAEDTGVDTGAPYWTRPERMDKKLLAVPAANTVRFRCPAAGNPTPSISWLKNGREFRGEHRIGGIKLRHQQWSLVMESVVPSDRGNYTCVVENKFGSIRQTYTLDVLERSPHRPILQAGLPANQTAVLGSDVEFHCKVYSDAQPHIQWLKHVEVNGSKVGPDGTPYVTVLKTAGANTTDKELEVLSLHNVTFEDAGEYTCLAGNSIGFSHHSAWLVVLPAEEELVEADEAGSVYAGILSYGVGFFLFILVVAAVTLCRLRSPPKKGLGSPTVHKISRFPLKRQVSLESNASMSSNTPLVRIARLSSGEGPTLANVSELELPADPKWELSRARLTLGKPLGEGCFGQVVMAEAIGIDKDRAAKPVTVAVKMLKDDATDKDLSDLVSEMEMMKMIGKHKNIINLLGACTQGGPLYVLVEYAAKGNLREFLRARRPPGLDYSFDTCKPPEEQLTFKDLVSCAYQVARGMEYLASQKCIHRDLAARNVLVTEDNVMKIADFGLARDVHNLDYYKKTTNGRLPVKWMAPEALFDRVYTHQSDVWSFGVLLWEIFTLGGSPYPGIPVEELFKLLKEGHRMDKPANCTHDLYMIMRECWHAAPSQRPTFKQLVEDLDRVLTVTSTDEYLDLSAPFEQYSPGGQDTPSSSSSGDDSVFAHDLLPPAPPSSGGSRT
Chain of FGFR1 (P11362 whole entry, looked up): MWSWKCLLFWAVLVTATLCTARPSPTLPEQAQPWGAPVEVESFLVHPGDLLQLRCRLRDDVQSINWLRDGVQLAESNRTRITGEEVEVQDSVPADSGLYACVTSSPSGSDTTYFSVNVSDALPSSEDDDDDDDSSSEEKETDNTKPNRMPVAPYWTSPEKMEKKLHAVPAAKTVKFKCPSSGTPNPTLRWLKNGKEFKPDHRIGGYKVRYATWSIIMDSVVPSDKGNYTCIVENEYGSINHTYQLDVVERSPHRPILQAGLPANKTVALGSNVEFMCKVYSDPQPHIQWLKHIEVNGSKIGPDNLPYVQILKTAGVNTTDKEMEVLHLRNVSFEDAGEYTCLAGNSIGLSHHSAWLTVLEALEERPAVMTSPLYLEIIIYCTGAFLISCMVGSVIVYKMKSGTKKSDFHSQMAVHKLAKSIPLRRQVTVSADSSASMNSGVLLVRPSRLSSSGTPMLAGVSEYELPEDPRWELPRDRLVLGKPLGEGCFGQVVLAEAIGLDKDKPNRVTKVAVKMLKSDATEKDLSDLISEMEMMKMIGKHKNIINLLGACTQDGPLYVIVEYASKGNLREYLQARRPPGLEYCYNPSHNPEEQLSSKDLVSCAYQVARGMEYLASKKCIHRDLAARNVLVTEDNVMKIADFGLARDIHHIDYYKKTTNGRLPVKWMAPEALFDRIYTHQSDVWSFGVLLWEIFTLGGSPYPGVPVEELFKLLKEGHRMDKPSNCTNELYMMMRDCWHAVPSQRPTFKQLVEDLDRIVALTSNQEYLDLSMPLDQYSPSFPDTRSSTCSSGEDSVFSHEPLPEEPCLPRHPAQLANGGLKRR
Chain of Fes (P07332 whole entry, looked up): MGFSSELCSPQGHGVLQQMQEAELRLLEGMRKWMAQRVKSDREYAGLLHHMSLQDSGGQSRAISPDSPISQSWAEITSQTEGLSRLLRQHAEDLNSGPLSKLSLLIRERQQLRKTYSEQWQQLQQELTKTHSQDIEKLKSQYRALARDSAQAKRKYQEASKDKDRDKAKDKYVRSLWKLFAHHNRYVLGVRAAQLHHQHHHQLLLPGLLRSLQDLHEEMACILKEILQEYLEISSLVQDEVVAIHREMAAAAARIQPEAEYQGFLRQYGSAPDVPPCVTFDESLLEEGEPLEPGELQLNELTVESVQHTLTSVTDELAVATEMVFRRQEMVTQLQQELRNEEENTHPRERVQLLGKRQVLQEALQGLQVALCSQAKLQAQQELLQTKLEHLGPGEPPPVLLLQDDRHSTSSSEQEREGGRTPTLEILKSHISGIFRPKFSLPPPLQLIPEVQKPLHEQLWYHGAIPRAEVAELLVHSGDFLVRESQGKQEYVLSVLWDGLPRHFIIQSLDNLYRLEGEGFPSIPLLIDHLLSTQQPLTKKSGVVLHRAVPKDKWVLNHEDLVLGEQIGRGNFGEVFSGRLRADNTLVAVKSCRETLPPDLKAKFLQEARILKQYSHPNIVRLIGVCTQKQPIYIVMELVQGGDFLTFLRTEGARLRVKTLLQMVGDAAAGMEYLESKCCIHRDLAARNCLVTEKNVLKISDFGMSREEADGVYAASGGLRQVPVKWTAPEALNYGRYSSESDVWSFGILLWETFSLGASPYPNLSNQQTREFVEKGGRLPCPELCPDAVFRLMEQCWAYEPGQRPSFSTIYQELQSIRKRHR
Chain of Fyn (P06241 whole entry, looked up): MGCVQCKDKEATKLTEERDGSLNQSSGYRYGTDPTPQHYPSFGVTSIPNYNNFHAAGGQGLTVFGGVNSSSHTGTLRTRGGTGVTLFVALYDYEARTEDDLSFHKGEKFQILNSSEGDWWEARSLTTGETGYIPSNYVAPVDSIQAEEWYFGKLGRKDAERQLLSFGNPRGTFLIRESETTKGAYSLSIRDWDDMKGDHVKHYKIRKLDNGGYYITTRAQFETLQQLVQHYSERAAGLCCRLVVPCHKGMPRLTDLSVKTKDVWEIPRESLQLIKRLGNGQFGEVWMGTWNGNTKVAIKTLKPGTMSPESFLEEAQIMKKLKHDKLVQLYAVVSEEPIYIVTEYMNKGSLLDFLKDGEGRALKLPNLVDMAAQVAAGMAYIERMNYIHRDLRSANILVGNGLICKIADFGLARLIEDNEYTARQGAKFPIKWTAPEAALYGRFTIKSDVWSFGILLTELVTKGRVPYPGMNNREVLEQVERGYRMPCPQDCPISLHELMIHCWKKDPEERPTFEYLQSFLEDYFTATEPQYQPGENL

Row | SH2 binding enrichment (Grb2 SH2) | SH2 binding enrichment (c-Src SH2) | SH2 binding enrichment (SHP2-C SH2) | Sequence | phosphorylation enrichment (FGFR1) | phosphorylation enrichment (Fyn) | phosphorylation enrichment (Hck) | phosphorylation enrichment (c-Src) | phosphorylation enrichment (Fer (mouse)) | phosphorylation enrichment (Fes) | phosphorylation enrichment (c-Abl (mouse)) | phosphorylation enrichment (AncSZ) | phosphorylation enrichment (MERTK) | phosphorylation enrichment (EPHB1) | phosphorylation enrichment (EPHB2) | phosphorylation enrichment (FGFR3) | phosphorylation enrichment (Jak2)
1 | 0.886 | 3.2 | 0.645 | IVAREYYSEAD [CAMK2A_Y106] | 0.618 | 0.474 | 0.557 | 0.548 | 0.586 | 1.2 | 0.664 | 1.03 | 0.455 | 0.557 | 0.552 | 0.81 | 1.01
2 | 1.18 | 0.795 | 1.55 | IWIFHYAKGQP [MPZ_Y82_S78W] | 0.348 | 0.49 | 0.411 | 0.577 | 0.459 | 1.55 | 1.09 | 1.26 | 0.446 | 0.578 | 0.498 | 0.768 | 1.28
3 | 0.915 | 0.773 | 0.442 | IYETDYYQKGG [INSR_Y1189_R1191Q] | 1.52 | 1.46 | 1.37 | 1.37 | 1.6 | 1.08 | 0.629 | 1.88 | 4.71 | 1.2 | 0.948 | 1.46 | 0.819
4 | 0.83 | 0.927 | 1.14 | KDFNKYVAYIE [KDM4B_Y31] | 0.375 | 0.365 | 0.485 | 0.364 | 0.359 | 0.767 | 0.483 | 0.718 | 0.379 | 0.461 | 0.449 | 0.53 | 0.603
5 | 1.19 | 0.947 | 1.04 | KDHRDYKFQPR [SOX9_Y172_P170R_YF] | 0.462 | 0.49 | 0.421 | 0.423 | 0.388 | 0.586 | 0.683 | 0.543 | 0.583 | 0.426 | 0.346 | 0.471 | 0.51
6 | 0.664 | 0.38 | 0.475 | KDLPNYNWKSF [KISS1_Y112_N115K] | 0.418 | 0.438 | 0.439 | 0.588 | 0.464 | 0.865 | 0.72 | 0.655 | 0.455 | 0.532 | 0.529 | 0.598 | 0.918
7 | 0.805 | 0.485 | 0.399 | KDQGGYAMHQD [MAPT_Y29_T30A] | 0.329 | 0.392 | 0.471 | 0.487 | 0.419 | 0.798 | 0.557 | 0.677 | 0.426 | 0.406 | 0.476 | 0.574 | 0.528
8 | 0.981 | 0.533 | 0.712 | KDYETYQSFQN [CTNND2_Y1157_P1159S] | 0.551 | 6.69 | 5.74 | 4.92 | 0.651 | 1.03 | 0.875 | 1.33 | 0.427 | 7.69 | 8.93 | 0.691 | 1.03
9 | 1.03 | 0.389 | 0.554 | KEDSVYGSQSV [NFKB2_Y868_A867V] | 0.353 | 1.43 | 0.984 | 1.35 | 0.498 | 0.946 | 0.608 | 0.829 | 0.399 | 0.449 | 0.41 | 0.557 | 0.794
10 | 1.24 | 1.32 | 0.803 | KELAPYDENCF [RPS19_Y48_W52C] | 0.573 | 0.583 | 0.57 | 0.612 | 0.632 | 1.48 | 0.997 | 1.32 | 0.487 | 0.628 | 0.696 | 0.902 | 1.31
11 | 0.74 | 0.525 | 0.854 | KERNQYGGVMV [MMP21_Y347_E349G] | 0.418 | 0.556 | 0.474 | 0.507 | 0.474 | 0.594 | 0.44 | 0.534 | 0.394 | 0.361 | 0.394 | 0.475 | 0.425
12 | 0.647 | 0.458 | 0.41 | KFEDVYVGICL [B3GALNT1_Y269] | 1.23 | 3.06 | 1.99 | 2.92 | 2.52 | 1.33 | 1.02 | 1.37 | 0.592 | 0.857 | 0.715 | 1.24 | 1.16
13 | 1.33 | 3.23 | 0.892 | KFMVGYEMLAQ [GALT_Y339] | 0.553 | 0.417 | 0.526 | 0.382 | 0.511 | 0.897 | 0.622 | 0.88 | 0.343 | 0.519 | 0.504 | 0.697 | 0.833
14 | 2.19 | 1.33 | 1.55 | KFVVVYFRETD [IL17RB_Y447_I451T_YF] | 0.512 | 0.463 | 0.57 | 0.377 | 0.484 | 1.23 | 0.734 | 1.36 | 0.417 | 0.637 | 0.597 | 0.734 | 1.11
15 | 0.766 | 0.357 | 0.694 | KGEDFYCVTRH [FHL1_Y149_C153R] | 0.498 | 0.633 | 0.808 | 0.794 | 0.662 | 1.2 | 0.835 | 1.22 | 0.82 | 0.592 | 0.558 | 0.715 | 1
16 | 1.38 | 1.27 | 1.33 | KGELRYMHSRV [ABCD1_Y281] | 0.428 | 0.303 | 0.377 | 0.48 | 0.375 | 0.746 | 0.517 | 0.568 | 0.378 | 0.396 | 0.348 | 0.44 | 0.618
17 | 0.863 | 0.453 | 0.678 | KGFRGYSFDDI [TMEM230_Y110_YF] | 0.41 | 0.402 | 0.412 | 0.452 | 0.409 | 0.798 | 0.551 | 0.824 | 0.375 | 0.495 | 0.541 | 0.501 | 0.835

Row | SH2 binding enrichment (Grb2 SH2) | SH2 binding enrichment (c-Src SH2) | SH2 binding enrichment (SHP2-C SH2) | Sequence | phosphorylation enrichment (FGFR1) | phosphorylation enrichment (Fyn) | phosphorylation enrichment (Hck) | phosphorylation enrichment (c-Src) | phosphorylation enrichment (Fer (mouse)) | phosphorylation enrichment (Fes) | phosphorylation enrichment (c-Abl (mouse)) | phosphorylation enrichment (AncSZ) | phosphorylation enrichment (MERTK) | phosphorylation enrichment (EPHB1) | phosphorylation enrichment (EPHB2) | phosphorylation enrichment (FGFR3) | phosphorylation enrichment (Jak2)
18 | 2.45 | 1.75 | 3.18 | KGKLIYLLRDS [NXPE1_Y350_G353R] | 0.428 | 0.49 | 0.599 | 0.516 | 0.492 | 0.964 | 0.666 | 0.719 | 0.443 | 0.455 | 0.447 | 0.599 | 0.692
19 | 0.913 | 1.05 | 0.874 | KHCEDYVCSYN [DSC1_Y846] | 0.627 | 0.502 | 0.555 | 1.36 | 0.506 | 1.23 | 0.771 | 1.14 | 0.398 | 0.63 | 0.578 | 0.662 | 0.93
20 | 0.637 | 0.421 | 0.533 | KIIRRYVSSEG [ANK2_Y3907] | 0.384 | 0.41 | 0.371 | 0.458 | 0.365 | 0.479 | 0.416 | 0.509 | 0.351 | 0.321 | 0.358 | 0.34 | 0.531
21 | 1.05 | 0.907 | 0.998 | KILTHYKQPHT [KMT2D_Y5349_R5351Q] | 0.437 | 0.478 | 0.46 | 0.416 | 0.384 | 0.565 | 1.18 | 0.763 | 0.506 | 0.364 | 0.403 | 0.412 | 0.726
22 | 0.836 | 0.709 | 0.806 | KKCTRYIDCAL [ASPA_Y64_D68A] | 0.394 | 0.336 | 0.356 | 0.371 | 0.418 | 0.755 | 0.55 | 0.684 | 0.338 | 0.374 | 0.394 | 0.568 | 0.595
23 | 1.8 | 1.77 | 2.15 | KKHFSYAWPFF [BRDT_Y291_YF] | 0.545 | 0.428 | 0.428 | 0.529 | 0.487 | 1.13 | 0.661 | 1.03 | 1.64 | 0.467 | 0.494 | 0.653 | 0.976
24 | 1.42 | 1.24 | 1.67 | KKLHKYNTQFQ [PIK3R1_Y452_E451K] | 0.496 | 0.355 | 0.425 | 0.416 | 0.503 | 0.909 | 1.06 | 0.577 | 0.487 | 0.511 | 0.46 | 1.13 | 1.55
25 | 0.869 | 0.679 | 0.983 | KKRSVYLKVLF [CC2D2A_Y683] | 0.494 | 0.446 | 0.401 | 0.391 | 0.478 | 1.19 | 0.706 | 1.01 | 0.361 | 0.453 | 0.543 | 0.721 | 0.897
26 | 0.931 | 0.785 | 0.907 | KLKRSYCSPDI [USP8_Y717_S718C] | 0.415 | 0.401 | 0.393 | 0.433 | 0.318 | 0.712 | 0.534 | 0.538 | 0.459 | 0.36 | 0.37 | 0.534 | 0.648
27 | 1.13 | 0.531 | 0.651 | KLKRSYSSRDI [USP8_Y717_P720R] | 0.289 | 0.329 | 0.327 | 0.458 | 0.371 | 0.464 | 0.51 | 0.45 | 0.432 | 0.351 | 0.409 | 0.368 | 0.51
28 | 0.713 | 0.408 | 0.576 | KMGNEYVTKGQ [MYH7_Y410_V406M] | 0.375 | 0.358 | 0.451 | 0.344 | 0.385 | 0.523 | 0.326 | 0.447 | 0.374 | 0.367 | 0.353 | 0.447 | 0.418
29 | 0.743 | 0.837 | 0.836 | KMKGDYYCYLA [YWHAG_Y130_R132C] | 11 | 1.38 | 1.58 | 1.78 | 0.895 | 1.24 | 1.57 | 2.32 | 6.74 | 4.58 | 4.35 | 9.02 | 3.93
30 | 0.617 | 0.328 | 0.598 | KNILCYIQGGS [HYDIN_Y4610] | 0.585 | 0.436 | 0.594 | 0.504 | 0.522 | 1.43 | 0.977 | 1.13 | 0.458 | 0.711 | 0.748 | 0.761 | 1.27
31 | 0.99 | 0.68 | 0.762 | KNITEYCRDLI [RECQL_Y492] | 0.476 | 0.477 | 0.471 | 0.42 | 0.502 | 1.05 | 0.66 | 0.877 | 0.397 | 0.544 | 0.606 | 0.691 | 0.791
32 | 0.623 | 0.672 | 0.805 | KNKELYSDPFD [PDE10A_Y300_L303P] | 0.706 | 0.443 | 0.824 | 0.629 | 0.983 | 0.886 | 0.592 | 0.877 | 0.786 | 0.878 | 1.37 | 0.935 | 0.763
33 | 0.755 | 0.624 | 0.977 | KPGVNYYFRVS | 0.623 | 0.368 | 0.423 | 0.385 | 0.483 | 1.37 | 0.732 | 1.15 | 0.392 | 0.534 | 0.739 | 0.7 | 1.16
